In US20240294622A1:

Target: DAN-his (Sinobiological) (human) (UniProt P41271)
Assay: blocking ELISA: coated BMP2, antibody pre-incubated with human DAN-his, anti-his HRP; blocked ligand BMP2; fit value of a flat control curve; unit from the axis Concentration(nM)

DAN-his (Sinobiological) (human), sequence (P41271 17-181 limits assumed): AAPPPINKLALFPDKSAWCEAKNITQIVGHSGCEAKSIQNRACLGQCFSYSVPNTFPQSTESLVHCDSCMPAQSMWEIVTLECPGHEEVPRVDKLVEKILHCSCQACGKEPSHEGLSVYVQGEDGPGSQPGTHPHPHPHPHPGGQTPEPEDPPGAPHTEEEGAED

Substance IgG1 (antibody) has an IC50 of 24.7 nM.
